Assay results published in patent publication US20260274979A1 (Genmab, published 2026).
Several values for one entry are separate records, joined by “and”; a condition that tells them apart may be missing. Identical values can stand only once.

Experiments:
[1] = target: complement protein C1q (from human serum) (human, UniProt P02745 23-245; P02746 28-253; P02747 29-245); test: flow cytometry: C1q from human serum on activated human CD8+ T cells pre-incubated with antibody, FITC anti-C1q
[2] = target: T1, human PD-1, full-length, expressed on cells (human, UniProt Q15116 25-288); test: competition flow cytometry: antibody titrated against 1 µg/mL biotinylated recombinant human PD-L2 on CHO-S cells transiently transfected with human PD-1; streptavidin-allophycocyanin; % of cells binding PD-L2
T1 construct: whole, on cells; also called programmed cell death protein 1; membrane-expressed human PD-1
T1 sequence (Q15116 25-288): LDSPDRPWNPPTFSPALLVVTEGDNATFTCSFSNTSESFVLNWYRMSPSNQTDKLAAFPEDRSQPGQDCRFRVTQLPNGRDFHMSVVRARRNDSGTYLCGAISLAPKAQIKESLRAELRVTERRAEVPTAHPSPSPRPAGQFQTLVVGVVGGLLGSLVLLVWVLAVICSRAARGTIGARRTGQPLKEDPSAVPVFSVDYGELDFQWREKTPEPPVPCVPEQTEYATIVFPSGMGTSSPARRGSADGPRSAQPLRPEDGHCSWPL

[3] = target: T1, human PD-1, full-length, expressed on …; test: cell-based or functional assay
[4] = target: T1, human PD-1, full-length, expressed on …; test: cell-based or functional assay; remark: listed apart in the source
[5] = target: T1, human PD-1, full-length, expressed on …; test: flow cytometry: 1 µg/mL biotinylated recombinant human PD-L2 on CHO-S cells transiently transfected with human PD-1; streptavidin-allophycocyanin; % of cells binding PD-L2

complement protein C1q (from human serum), sequence (P02745 23-245, chain 1 of 3): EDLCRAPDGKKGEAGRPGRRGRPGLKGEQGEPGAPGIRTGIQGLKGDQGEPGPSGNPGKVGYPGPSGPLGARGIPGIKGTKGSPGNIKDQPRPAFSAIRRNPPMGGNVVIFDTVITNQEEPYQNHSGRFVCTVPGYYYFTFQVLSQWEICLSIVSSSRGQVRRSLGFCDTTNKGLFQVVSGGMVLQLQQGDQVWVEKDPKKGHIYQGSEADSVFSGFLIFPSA
complement protein C1q (from human serum), sequence (P02746 28-253, chain 2 of 3): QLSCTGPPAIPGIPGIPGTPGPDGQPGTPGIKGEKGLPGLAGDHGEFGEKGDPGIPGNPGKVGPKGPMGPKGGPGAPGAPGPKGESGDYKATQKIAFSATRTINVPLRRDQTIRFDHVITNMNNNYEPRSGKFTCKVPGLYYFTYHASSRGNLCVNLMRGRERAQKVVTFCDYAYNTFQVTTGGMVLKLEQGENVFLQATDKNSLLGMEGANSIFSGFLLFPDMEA
complement protein C1q (from human serum), sequence (P02747 29-245, chain 3 of 3): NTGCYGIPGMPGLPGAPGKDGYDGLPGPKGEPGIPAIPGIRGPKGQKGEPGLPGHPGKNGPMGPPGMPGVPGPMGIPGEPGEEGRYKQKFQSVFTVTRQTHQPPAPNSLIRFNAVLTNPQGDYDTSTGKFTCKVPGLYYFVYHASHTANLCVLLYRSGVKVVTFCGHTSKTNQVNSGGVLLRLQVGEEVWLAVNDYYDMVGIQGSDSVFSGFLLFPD

Binder | binding result [1] | IC50 (read off the curve) [2] [µg/mL] | EC50 of PD-1/PD-L1 checkpoint blockade (luminescence, cell-based PD-1/PD-L1 blockade reporter assay) [3] | Average EC50, CD8+ T-cell expansion index in the antigen-specific proliferation assay [4] | binding result [5]
IgG1-PD1 (antibody, also called IgG1-PDI; copies: 2 + 2) heavy: QVQLVESGGGLVQPGTSLRLSCSVSGFSLYSYNMGWVRQAPGKGLEYIGIISGGTIGHYASWAKGRFTISRDTSKTTLYLQMNSLTTEDTATYFCARAFYDDYDYNVWGPGTLVTVSSASTKGPSVFPLAPSSKSTSGGTAALGCLVKDYFPEPVTVSWNSGALTSGVHTFPAVLQSSGLYSLSSVVTVPSSSLGTQTYICNVNHKPSNTKVDKRVEPKSCDKTHTCPPCPAPEFERGPSVFLFPPKPKDTLMISRTPEVTCVVVDVSHEDPEVKFNWYVDGVEVHNAKTKPREEQYNSTYRVVSVLTVLHQDWLNGKEYKCKVSNKALPAPIEKTISKAKGQPREPQVYTLPPSREEMTKNQVSLTCLVKGFYPSDIAVEWESNGQPENNYKTTPPVLDSDGSFFLYSKLTVDKSRWQQGNVFSCSVMHEALHNHYTQKSLSLSPG light: AIQLTQSPSSLSASVGGTVTITCQSSQSVYGNNQLSWYQQKPGQPPKLLIYQASKLETGVPSRFRGSGSGTQFTLTISSLQSEDFATYYCAGGYSSSSDTTFGGGTEVVVKRTVAAPSVFIFPPSDEQLKSGTASVVCLLNNFYPREAKVQWKVDNALQSGNSQESVTEQDSKDSTYSLSSTLTLSKADYEKHKVYACEVTHQGLSSPVTKSFNRGEC | no binding (tested: antibody up to 30 µg/mL; 20% human serum) | ~0.9 | 0.165 µg/mL and 1.12 nM | 0.0124 µg/mL and 0.0837 nM | 
biotinylated recombinant human PD-L2 (ligand, UniProt Q9BQ51 20-219, looked up, biotinylated, Bought reagent; also called programmed cell death 1 ligand 2) LFTVTVPKELYIIEHGSNVTLECNFDTGSHVNLGAITASLQKVENDTSPHRERATLLEEQLPLGKASFHIPQVQVRDEGQYQCIIIYGVAWDYKYLTLKVKASYRKINTHILKVPETDEVELTCQATGYPLAEVSWPNVSVPANTSHSRTPEGLYQVTSVLRLKPPPGRNFSCVFWNTHVRELTLASIDLQSQMEPRTHP |  |  |  |  | binds
